From article PMC8946150, “Microsphere Peptide-Based Immunoassay for the Detection of Recombinant Bovine Somatotropin in Injection Preparations” (Biosensors, 2022)
Positions count from the first letter of the chain named.

B1: eST: equine somatotropin from Bresagen (protein, UniProt P01245 27-216, looked up)
Somatotropin: FPAMPLSSLFANAVLRAQHLHQLAADTYKEFERAYIPEGQRYSIQNAQAAFCFSETIPAPTGKDEAQQRSDMELLRFSLLLIQSWLGPVQLLSRVFTNSLVFGTSDRVYEKLRDLEEGIQALMRELEDGSPRAGQILKQTYDKFDTNLRSDDALLKNYGLLSCFKKDLHKAETYLRVMKCRRFVESSCAF
B2: pST: Porcine Somatotropin from Sigma-Aldrich (protein, UniProt P01248 27-216, looked up)
Somatotropin: B1 Somatotropin with M72V, L91F, R113K
B3: rbST: 191 amino acid long protein hormone; rbST protein standard from NHPP (Dr. Parlow) (protein, UniProt P01246 27-217, looked up)
Somatotropin: AFPAMSLSGLFANAVLRAQHLHQLAADTFKEFERTYIPEGQRYSIQNTQVAFCFSETIPAPTGKNEAQQKSDLELLRISLLLIQSWLGPLQFLSRVFTNSLVFGTSDRVYEKLKDLEEGILALMRELEDGTPRAGQILKQTYDKFDTNMRSDDALLKNYGLLSCFRKDLHKTETYLRVMKCRRFGEASCAF

How the values were obtained:
MAb 4H12 [1] = assay: MIPA binding of MAb 4H12 to peptide- or rbST-coupled microspheres; conditions: peptide or protein coupled to microspheres, MAGPIX read-out
Procedure: (§1) Microsphere preparation was executed according to Bremer et al. with the exception that Magplex® microsphere sets instead of seroMAP microspheres were used. During the procedure, microspheres were trapped using a magnet (1 min) and after removal of the supernatant, trapped microspheres were resuspended by vortexing (1 min). The peptides pep, pep-K, pep-peg, pep-aca and rbST standard were coupled to the different internally dyed microsphere sets, i.e., microsphere set numbers 012, 043, 029, 038 and 064, respectively (Figure 2). The internal dye gives the microsphere set a unique spectral signature, and consequently, a unique read-out region. For each microsphere set, 2.5 × 10^6 microspheres were covalently coupled with a two-step carbodiimide reaction using 500 μL of 100 µg mL^−1 peptide in boric acid solution (100 mM boric acid, 1M NaCl, adjusted to pH 8.3 with NaOH), and 100 µg mL^−1 rbST in MES buffer (50 mM MES pH 5.0). After coupling, the microspheres were stable for over 1 year when stored in a blocking buffer (PBS, 0.1% BSA, 0.02% Tween-20 and 0.05% NaN3) at 2–8 °C in the dark until use, with the exception for the microspheres measured with XPS, which were stored in Milli-Q water until use.
(§2) In this procedure, all dilution and washing steps were executed using PBST containing 0.1% BSA. In total, 100 μL of rbST, eST, pST and hST standard solution or injection preparation extract were added to a low bind 96-well microtiter plate. Next, 10 μL of 20-, 2-, 2-, 1- and 0.7 ng mL^−1 antibody for microspheres coated with, respectively, pep, pep-peg, pep-aca, k-pep and rbST and microspheres (10 μL diluted suspension containing about 1250 microspheres per microsphere set) were added to each well. The microtiter plate was incubated for 20 min on a microtiter plate shaker to allow competition between the immobilized rbST epitope peptides or protein on the microspheres and the somatotropin (ST) present in the solution for the available antibody binding sites. After incubation, the microspheres were trapped by a magnet and washed twice. After washing, a 125 μL, 625-times diluted PE labeled Goat anti Mouse antibody was added and incubated for 20 min on a microtiter plate shaker. After this incubation step, microspheres were trapped with a magnet, supernatant removed and 125 µL PBST containing 0.1% BSA added. The plate was briefly mixed on the microtiter plate shaker before measuring on the imaging planar array analyzer (MAGPIX).

MAb 4H12 [2] = assay: Epitope mapping of rbST for MAb 4H12 (Pepscan, ELISA-type read out); assay type: binding; conditions: all four epitope designs (sets 1-4: linear 15-mers, double-Ala, α-helical loop mimics)
Excerpt: The entire sequence of rbST (Figure 1A) was epitope mapped for antibody 4H12 by Pepscan Presto BV (Lelystad, The Netherlands), as described before. Briefly, the rbST sequence was derived from the endogenous bST sequence by replacing the N-terminal alanine (Ala) with a methionine (Met) residue. With this rbST sequence, four sets of peptides were produced and used to determine the binding epitope of MAb 4H12: (i) linear peptides of 15 amino acids in length with an offset of one amino acid (set 1), (ii) linear peptides similar to set 1, with the amino acids on place 10 and 11 replaced by alanine (Ala); a native Ala present on place 10 and/or 11 was replaced by glycine (Gly) (set 2), (iii) α-helical loop mimics of 21 amino acids in length with an offset of one amino acid and cysteine residues on place 1 and 5 to enable connection with an α-helix-inducing mP2 chemical linkage of peptides onto scaffolds (CLIPS, set 3) and (iv) α-helical loop mimics similar to set 3, with the two Cys residues placed on amino acid numbers 1 and 8, which were also linked with mP2 CLIPS (set 4). Binding of Mab 4H12 to the described peptides is quantified using an ELISA-type read out.
Figure 1 Schematic representation of the four epitope mapping approaches to identify peptide-based mimics of recombinant bovine somatotropin (rbST) that bind to the monoclonal antibody 4H12. […]

MAb 4H12 [3] = assay: Inhibition MIPA (microsphere peptide-based immunoassay, indirect competitive format, MAGPIX); assay type: binding; conditions: for recognition / cross-reactivity of somatotropins with MAb 4H12: calibration curves up to 100 µg mL^-1, PBST/BSA; for concentration of full inhibition: somatotropin as competitor in PBST/BSA
Procedure: as §1, §2
Figure 3 Summarized workflow and assay principle of the indirect competitive assay format for somatotropins. In absence of rbST (upper part), MAb 4H12 binds to the peptide-coated microspheres, which enables binding of the PE coupled secondary antibody. The presence of PE results in a high signal in the imaging planar array analyzer. In presence of rbST (lower part), MAb 4H12 binds to the rbST in solution. […] As no PE is present, this will result in a low signal in the imaging planar array analyzer.

MAb 4H12 [4] = assay: Surface plasmon resonance, MAb 4H12 on immobilized rbST or pep-peg; assay type: binding
Excerpt: (§3) Although the literature often describes the need for spacers in peptide-based biorecognition assays, in our assay format based on the MAb 4H12 and the peptide 115[…]125 biorecognition pair, no spacers were required. […] The presence of peptides on the microspheres was proven by XPS measurements (Supplementary Materials, Figure S2). In addition, the specificity was compared by initial surface plasmon resonance (SPR) experiments, where the pep-peg peptide was coupled to one microfluidic channel and rbST to another channel of the sensor surface. The sensor channels were incubated with two different rbST-induced monoclonal antibodies, MAb 4H12, which specifically binds the peptide 115[…]125 and MAb 5E2, which recognizes another, yet unknown, epitope. […] Next, MAb 4H12 concentrations were optimized for the microsphere peptide-based immunoassay to a dilution factor corresponding to a signal intensity of 1000 MFI for the blank standard (dilution buffer, Supplementary Materials, Table S2). […] The antibody concentrations in combination with the respective microspheres were used to determine the sensitivity of MAb 4H12 for the determination of full rbST-protein in standard solutions, as shown in Figure 4. For bot, rbST-protein and peptide immobilized microspheres, typical dose-response curves were obtained, with IC50 values of, respectively, 0.20 µg mL^−1 and 0.11 µg mL^−1.

MAb 5E2 = assay: Surface plasmon resonance, MAb 5E2 on immobilized rbST or pep-peg; assay type: binding
Excerpt: as §3

dairy cows = conditions: according to the manufacturer's protocol; cited from earlier work
Excerpt: RbST is a 191 amino acid long protein hormone that enhances growth and lactating performance in cattle. When administered to dairy cows according to the manufacturer’s protocol, milk production can increase up to 25% [11]. The use of rbST for milk-enhancing properties is approved in several countries, but is banned in the European Union. To control this ban, a strategy to detect rbST misuse in the EU has been described by Smits et al.. The strategy for rbST in serum and milk from dairy cows is based on the digestion of the proteins and detection of rbST-specific peptides formed ...

[5] = microspheres coupled with pep, n = 2

Molecule | binding of MAb 4H12 to coupled microspheres (MAb 4H12 [1]) | recognition / cross-reactivity of somatotropins with MAb 4H12 (MAb 4H12 [3]; [5]) | concentration of full inhibition (MAb 4H12 [3]; [5]) | other results
DLEEGILALMR [pep] | showed binding | – | – | binding between MAb 4H12 and epitope sequence (MAb 4H12 [2]): binding
MRIEGLADLEL [pep-scr, linear peptide scrambled] | did not show any binding | – | – | binding of MAb 4H12 to coupled microspheres (MAb 4H12 [1]; listed as scrambled peptide): no binding occurred
hST: human Somatotropin from Sigma-Aldrich | – | not able to recognize and bind | – | –
B1 | – | cross-reactivity was seen | around 100 µg mL^-1 | –
B2 | – | cross-reactivity was seen | around 100 µg mL^-1 | –
B3 | showed binding | – | – | IC50 of rbST in inhibition MIPA, per microsphere set (MAb 4H12 [3]; competitor rbST in PBST/0.1% BSA, label = peptide or protein coupled to the microspheres, MAb 4H12 20, 2, 2, 1, 0.7 ng mL^-1 for pep, pep-peg, pep-aca, pep-K, rbST, 20 min incubation, GAM-PE, MAGPIX, four-parameter fit, n = 3): 0.20 µg/mL; inhibition of MAb 4H12 at 1 µg mL^-1 (MAb 4H12 [3]; somatotropin as competitor at 1 µg mL^-1 in PBST/BSA, microspheres coupled with pep, n = 2): almost completely inhibits; SPR binding of MAb 4H12 (MAb 4H12 [4]): Both MAbs showed binding; SPR binding of MAb 5E2 (MAb 5E2): Both MAbs showed binding; increase of milk production (dairy cows): up to 25%
